Drawing on EP1169642B1, this text covers stoichiometry (OPN:Factor H) for 1 substance.

This test concerns the target purified human complement Factor H (human) (UniProt P08603). As to the kind of experiment: steady state fluorescence titration of purified human Factor H.

Chain of purified human complement Factor H (human) (P08603 19-1231 limits assumed): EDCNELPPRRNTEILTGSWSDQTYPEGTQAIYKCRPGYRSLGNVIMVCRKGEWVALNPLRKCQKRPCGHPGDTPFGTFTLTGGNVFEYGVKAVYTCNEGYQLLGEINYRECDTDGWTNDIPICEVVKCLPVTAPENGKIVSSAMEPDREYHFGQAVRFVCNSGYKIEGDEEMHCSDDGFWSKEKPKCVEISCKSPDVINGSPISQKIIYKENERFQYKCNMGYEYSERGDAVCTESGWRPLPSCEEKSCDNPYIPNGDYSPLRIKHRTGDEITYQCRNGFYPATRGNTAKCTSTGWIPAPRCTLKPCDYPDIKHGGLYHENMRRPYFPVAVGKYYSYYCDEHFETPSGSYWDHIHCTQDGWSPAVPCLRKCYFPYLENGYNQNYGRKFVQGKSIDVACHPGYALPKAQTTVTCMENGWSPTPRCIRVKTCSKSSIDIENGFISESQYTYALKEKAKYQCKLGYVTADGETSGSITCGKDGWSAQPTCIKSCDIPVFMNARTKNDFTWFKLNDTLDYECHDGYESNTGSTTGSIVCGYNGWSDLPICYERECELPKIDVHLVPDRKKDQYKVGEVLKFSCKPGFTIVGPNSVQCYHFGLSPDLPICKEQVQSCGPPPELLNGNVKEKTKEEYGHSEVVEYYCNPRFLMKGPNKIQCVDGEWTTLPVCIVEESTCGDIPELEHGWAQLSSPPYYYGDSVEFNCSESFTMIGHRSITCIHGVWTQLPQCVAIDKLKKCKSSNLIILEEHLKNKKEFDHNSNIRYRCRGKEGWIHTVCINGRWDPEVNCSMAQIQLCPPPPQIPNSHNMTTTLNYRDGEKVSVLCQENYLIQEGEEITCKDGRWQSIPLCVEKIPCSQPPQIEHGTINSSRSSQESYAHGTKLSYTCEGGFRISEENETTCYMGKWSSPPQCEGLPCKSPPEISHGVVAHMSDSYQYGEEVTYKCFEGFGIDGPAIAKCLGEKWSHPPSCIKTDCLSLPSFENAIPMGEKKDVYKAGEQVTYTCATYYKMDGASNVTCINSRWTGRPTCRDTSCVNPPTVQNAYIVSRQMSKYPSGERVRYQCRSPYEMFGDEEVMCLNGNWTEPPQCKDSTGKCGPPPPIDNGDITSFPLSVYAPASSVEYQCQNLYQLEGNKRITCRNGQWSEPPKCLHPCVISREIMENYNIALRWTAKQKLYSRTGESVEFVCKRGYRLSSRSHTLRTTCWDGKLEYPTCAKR

Turning to “recombinant osteopontin (rOPN) (from UniProt P10451 17-314) (ligand)”, the stoichiometry (OPN:Factor H) worked out at 1 molar ratio.
